Measurements reported in patent US20180148503A1 (Memorial Sloan Kettering, published 2018).

Legend:
[1] = target: T1, PRA435-443 (…) / HLA-A*0201 complex (human); test: flow cytometry on tumor cell lines
T1 construct: also called PRAME P435

[2] = target: T2, 009-mut2 (…) / HLA-A*0201 complex on T2 cells (human); test: phage FACS on peptide-loaded T2 cells
T2 construct: also called EXT009-mut2

[3] = target: T3, PRA300-309 (…) / HLA-A*0201 complex (human); test: phage FACS on peptide-loaded T2 cells
T3 construct: also called PRAME300; PRAME P300

[4] = target: T4, 009-mut5 (…) / HLA-A*0201 complex on T2 cells (human); test: phage FACS on peptide-loaded T2 cells
T4 construct: also called EXT009-mut5

[5] = target: T5, 009-mut3 (…) / HLA-A*0201 complex on T2 cells (human); test: phage FACS on peptide-loaded T2 cells
T5 construct: also called EXT009-mut3; Pr302A

[6] = target: T6, 009-mut7 (…) / HLA-A*0201 complex on T2 cells (human); test: phage FACS on peptide-loaded T2 cells
T6 construct: also called EXT009-mut7; Pr306A

[7] = target: T7, 009-mut10 (…) / HLA-A*0201 complex on T2 cells (human); test: phage FACS on peptide-loaded T2 cells
T7 construct: Alanine variant at peptide position 10

[8] = target: T8, 009-mut9 (…) / HLA-A*0201 complex on T2 cells (human); test: phage FACS on peptide-loaded T2 cells
T8 construct: also called EXT009-mut9

[9] = target: T9, 009-AAAA (…) / HLA-A*0201 complex on T2 cells (human); test: phage FACS on peptide-loaded T2 cells
T9 construct: Control peptide with alanines at positions 4-7; also called EXT009-AAAA; 009-AAAA (position 4-7)

[10] = target: T10, 009-mut6 (…) / HLA-A*0201 complex on T2 cells (human); test: phage FACS on peptide-loaded T2 cells
T10 construct: also called EXT009-mut6

[11] = target: T11, 009-mut4 (…) / HLA-A*0201 complex on T2 cells (human); test: phage FACS on peptide-loaded T2 cells
T11 construct: also called EXT009-mut4

[12] = target: T12, 009-mut8 (…) / HLA-A*0201 complex on T2 cells (human); test: phage FACS on peptide-loaded T2 cells
T12 construct: also called EXT009-mut8

[13] = target: T13, HLA-A*0201 on T2 cells without added peptide (human); test: phage FACS on T2 cells without peptide
T13 construct: Background target (T2 cells with no peptide pulsed); also used as the HLA-A*02 partner of the peptide in the stabilisation read-out; also called T2 cells alone; unpulsed T2 cells

[14] = target: T9, 009-AAAA (…) / HLA-A*0201 complex on T2 …; test: phage FACS on peptide-loaded T2 cells; remark: listed apart in the source
[15] = target: T13, HLA-A*0201 on T2 cells without added …; test: T2 stabilisation: surface HLA-A*02 level after pulsing with 50 µg/mL peptide, flow cytometry; the staining antibody is not named for this panel
[16] = target: T3, PRA300-309 (…) / HLA-A*0201 complex; test: method not stated; told in the ADCC example with PRAME+/HLA-A*02:01+ leukemia cells; upper end of the printed range 3-4 nM
[17] = target: T3, PRA300-309 (…) / HLA-A*0201 complex; test: method not stated; told in the ADCC example with PRAME+/HLA-A*02:01+ leukemia cells; lower end of the printed range 3-4 nM
[18] = target: T3, PRA300-309 (…) / HLA-A*0201 complex; test: cell-based or functional assay
[19] = target: T4, 009-mut5 (…) / HLA-A*0201 complex on T2 …; test: flow cytometry, APC-Pr300#20 at 3 µg/ml on peptide-pulsed T2 cells; the sheet gives 324 for T2 alone and 68351 for Pr300
[20] = target: T5, 009-mut3 (…) / HLA-A*0201 complex on T2 …; test: as above
[21] = target: T6, 009-mut7 (…) / HLA-A*0201 complex on T2 …; test: as above
[22] = target: T8, 009-mut9 (…) / HLA-A*0201 complex on T2 …; test: as above
[23] = target: T10, 009-mut6 (…) / HLA-A*0201 complex on T2 …; test: as above
[24] = target: T11, 009-mut4 (…) / HLA-A*0201 complex on T2 …; test: as above
[25] = target: T12, 009-mut8 (…) / HLA-A*0201 complex on T2 …; test: as above
[26] = target: T13, HLA-A*0201 on T2 cells without added …; test: flow cytometry, Prame20 mAb on T2 cells without peptide; axis without numbers

B1: Pr435#12 antibody (antibody, V domains shown)
VH: EVQLVESGAEVKKPGSSVKVSCKASGGTFSSYAISWVRQAPGQGLEWMGRIIPILGIANYAQKFQGRVTITADKSTSTAYMELSSLRSEDTAVYYCARQGYVWSEMDFWGQGTLVTVSS
VL: LLPVLTQPPSVSVAPGKTARITCGGNNIGSKSVHWYQQKPGQAPVLVIYYDSDRPSGIPERFSGSNSGNTATLTISRVEAGDEADYYCQVWDSITDHYVFGTGTKVTVLG
notes: also called Pr4350#12
binding result [1]: binds

B2: EXT009-8 phage (scFv phage clone) (scFv)
scFv: QSVVTQPPAVSGALGQRVTISCTGTTSNIGAGFDVHWYQQRPGAAPKLLISGNTHRPSGVPDRISGSKSGTLASLAITGLQAEDEADYYCQSYDRSLSTILFGGGTKLTVLGSRGGGGSGGGGSGGGGSLEMAQVQLVQSGAEVKKPGSSVKVSCKASGGTFSSHPISWVRQAPGQGLEWMGRIIPMLDIPNNAQKFQGRVTITADKSTDTAYLELSSLTSEDTAVYYCARGLYYYDYWGQGTLVTVSS
notes: also called EXT009-08
MFI [2]: 83.3
MFI [3]: 1360
MFI [4]: 138
MFI [5]: 88.2
MFI [6]: 83.1
MFI [7]: 83.2
MFI [8]: 83.2
MFI [9]: 86.3
MFI [10]: 3830
MFI [11]: 87.6
MFI [12]: 82.5
MFI [13]: 85.9
binding result [14]: no binding

B3: PRA300-309 peptide (ALYVDSLFFL) (peptide)
peptide: ALYVDSLFFL
notes: also called pr300 peptide; PRAME300 peptide
binding result [15]: binds

B4: Pr300#20-MAGE (antibody, V domains shown)
VH: QVQLVQSGAEVRKPGASVKVSCKASGGTFSSYAISWVRQAPGQGLEWMGRIIPILGIANYAQKFQGRVTITADKSTSTAYMELSSLRSEDTAVYYCARHYGQWWDYWGQGTLVTVSS
VL: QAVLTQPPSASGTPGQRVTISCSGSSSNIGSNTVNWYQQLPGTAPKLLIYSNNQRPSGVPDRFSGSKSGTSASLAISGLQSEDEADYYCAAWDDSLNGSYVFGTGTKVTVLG
modifications: modified afucosylated Fc
notes: also called Pr#20-Fc enhanced; Pr20M
Kd [16]: ≤ 4 nM
Kd [17]: ≥ 3 nM
EC50 (ADCC, 51Cr release, human PBMC effectors, E:T 50:1) [18]: 2 to 3 nM

B5: Pr300#20 human IgG1 antibody (antibody, V domains shown)
VH: B4 VH
VL: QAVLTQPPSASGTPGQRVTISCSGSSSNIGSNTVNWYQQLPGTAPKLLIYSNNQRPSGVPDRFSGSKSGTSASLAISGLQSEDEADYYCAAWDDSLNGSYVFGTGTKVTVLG
notes: Full-length human IgG1 with matching human lambda constant region; Used APC-conjugated in flow cytometry; also called Pr#20; PR#20
Median: APC-A [19]: 6240
Median: APC-A [20]: 18900
Median: APC-A [21]: 41500
Median: APC-A [22]: 730
Median: APC-A [23]: 28600
Median: APC-A [24]: 72800
Median: APC-A [25]: 10900
binding result [26]: no binding

B6: EXT009-17 phage (scFv phage clone) (scFv)
scFv: QSVLTQPPSVSGAPGQRVTISCTGSSSNIGAGFDVHWYQQLPGTAPKLLIFGNSNRPSGVPDRFSGSKSGTSASLAITGLQAEDEADYYCQSYDSSLSGYVFGSGTKVTVLGSRGGGGSGGGGSGGGGSLEMAEVQLVESGAEVKKPGSSVKVSCKASGGTFSSYAISWVRQAPGQGLEWMGRIIPIFGIANYAQKFQGRVTITADKSTSTAYMELSSLRSEDTAVYYCARSMWYMDSWGQGTLVTVSS
MFI [2]: 82
MFI [3]: 19400
MFI [4]: 85.1
MFI [5]: 95.5
MFI [6]: 82.1
MFI [7]: 146
MFI [8]: 79.7
MFI [9]: 85.7
MFI [10]: 23800
MFI [11]: 7510
MFI [12]: 96.1
MFI [13]: 82.8
binding result [14]: no binding

B7: Pr435#37 antibody (antibody, V domains shown)
VH: EVQLVESGAEVKKPGASVKVSCKASGYTFTSYYMHWVRQAPGQGLEWMGIINPSGGSTSYAQKFQGRVTMTRDTSTSTVYMELSSLRSEDTAVYYCAAGSYYSLDIWGQGTMVTVSS
VL: LLPVLTQPHSVSESPGKTVTISCTGSSGSIASNFVQWYQQRPGSAPTTVIYDDNQRPSGVPDRFSASIDRSSNSASLTISGLKTDDEADYYCQSYDGSNVIFGGGTKLTVLG
notes: also called Pr4350#37
binding result [1]: binds
